Residue numbers refer to the chain shown, from its start.
T1: biotinylated recombinant human IL-12Rβ2 (human, UniProt Q99665 24-622, random biotinylated)
T1 construct: Recombinant protein produced in-house; also called hIL-12RB2; human IL-12RB2
T1 sequence: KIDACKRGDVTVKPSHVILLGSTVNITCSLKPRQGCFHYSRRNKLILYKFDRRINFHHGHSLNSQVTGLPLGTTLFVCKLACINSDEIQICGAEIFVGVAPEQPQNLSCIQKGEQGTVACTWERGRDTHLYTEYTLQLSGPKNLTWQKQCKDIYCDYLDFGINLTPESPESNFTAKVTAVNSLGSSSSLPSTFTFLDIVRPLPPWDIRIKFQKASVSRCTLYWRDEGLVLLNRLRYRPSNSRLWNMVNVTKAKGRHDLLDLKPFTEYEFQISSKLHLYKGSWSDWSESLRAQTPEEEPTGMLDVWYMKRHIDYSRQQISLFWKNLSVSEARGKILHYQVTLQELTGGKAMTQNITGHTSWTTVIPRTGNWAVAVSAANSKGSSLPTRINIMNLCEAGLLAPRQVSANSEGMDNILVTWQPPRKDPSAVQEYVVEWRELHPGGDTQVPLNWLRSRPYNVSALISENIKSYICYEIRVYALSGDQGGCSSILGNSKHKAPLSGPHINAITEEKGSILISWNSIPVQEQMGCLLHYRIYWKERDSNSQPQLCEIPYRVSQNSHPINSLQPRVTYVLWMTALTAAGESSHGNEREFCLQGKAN

T2: human IL-12Rβ2 expressed on cells (human, UniProt Q99665 24-862)
T2 sequence: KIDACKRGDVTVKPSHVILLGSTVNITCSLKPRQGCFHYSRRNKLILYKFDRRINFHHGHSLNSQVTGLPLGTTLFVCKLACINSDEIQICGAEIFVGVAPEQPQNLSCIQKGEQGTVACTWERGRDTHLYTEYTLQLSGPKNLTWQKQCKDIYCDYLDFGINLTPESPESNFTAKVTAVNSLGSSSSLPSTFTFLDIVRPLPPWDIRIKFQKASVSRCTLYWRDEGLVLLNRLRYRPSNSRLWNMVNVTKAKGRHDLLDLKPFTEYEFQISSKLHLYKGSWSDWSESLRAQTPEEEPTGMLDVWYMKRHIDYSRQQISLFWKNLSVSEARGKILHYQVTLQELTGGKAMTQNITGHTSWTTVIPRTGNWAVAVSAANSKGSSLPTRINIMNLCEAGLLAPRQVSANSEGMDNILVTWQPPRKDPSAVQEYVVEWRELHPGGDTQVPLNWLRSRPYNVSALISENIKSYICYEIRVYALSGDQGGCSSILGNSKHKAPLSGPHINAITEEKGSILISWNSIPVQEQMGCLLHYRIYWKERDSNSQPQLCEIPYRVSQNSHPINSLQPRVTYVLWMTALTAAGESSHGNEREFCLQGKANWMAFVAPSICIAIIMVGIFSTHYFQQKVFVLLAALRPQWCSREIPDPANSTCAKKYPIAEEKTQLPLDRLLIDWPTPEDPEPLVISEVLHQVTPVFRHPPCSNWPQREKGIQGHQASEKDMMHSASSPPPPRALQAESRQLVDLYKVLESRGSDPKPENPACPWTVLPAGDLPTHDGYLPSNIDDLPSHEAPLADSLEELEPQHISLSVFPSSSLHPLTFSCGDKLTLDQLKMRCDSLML

T3: biotinylated recombinant mouse IL-12Rβ2 (mouse, UniProt P97378 24-637, random biotinylated)
T3 construct: Recombinant protein produced in-house; also called mIL-12RB2; mouse IL-12RB2
T3 sequence: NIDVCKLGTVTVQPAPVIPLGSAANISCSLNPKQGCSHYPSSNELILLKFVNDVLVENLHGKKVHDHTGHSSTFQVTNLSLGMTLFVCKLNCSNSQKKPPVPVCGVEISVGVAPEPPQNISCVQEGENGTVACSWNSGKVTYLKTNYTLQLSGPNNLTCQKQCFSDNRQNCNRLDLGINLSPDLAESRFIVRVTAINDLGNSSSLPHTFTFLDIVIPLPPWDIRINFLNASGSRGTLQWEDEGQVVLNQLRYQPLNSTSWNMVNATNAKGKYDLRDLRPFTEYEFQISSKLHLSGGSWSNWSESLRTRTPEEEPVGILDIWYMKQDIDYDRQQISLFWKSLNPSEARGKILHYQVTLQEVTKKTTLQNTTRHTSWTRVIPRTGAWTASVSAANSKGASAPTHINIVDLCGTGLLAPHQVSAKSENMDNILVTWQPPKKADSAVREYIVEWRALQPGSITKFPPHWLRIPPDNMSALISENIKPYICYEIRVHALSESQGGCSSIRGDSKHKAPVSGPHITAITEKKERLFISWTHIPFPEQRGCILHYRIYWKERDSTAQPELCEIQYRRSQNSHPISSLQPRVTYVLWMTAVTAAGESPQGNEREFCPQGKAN

B1: anti-IL-12Rβ2 VHH clone 3CAH28 (clone ID 20356) (VHH, not shown: small tags and cut ends)
VHH: QVQLQESGGGLVQSGASLRLSCAASERTLSGYAMGWFRQAPGKEREFVAAIRWSGSSTYYAESVEGRFTISRDNAKNTVYLQMNILKPEDTAVYYCAAGSDYADEYDYWGQGTQVTVSS
notes: periplasmic extract
B2: anti-IL-12Rβ2 VHH clone 3CRH28 (clone ID 20380) (VHH, not shown: small tags and cut ends)
VHH: QVQLQESGGGLVQPGGSLTLSCAASGFTFSSNAMSWVRQAPGKGLEWVSSISSGGGTTYYTDSVKGRFTTARDNAKNTLYLRMNSLKPEDTAVYYCSKSSTGSGSRGQGTQVTVSS
notes: periplasmic extract
B3: anti-IL-12Rβ2 VHH clone 2CRH62 (clone ID 20368) (VHH, not shown: small tags and cut ends)
VHH: QVQLQESGGGLVQPGGSLRLSCVESGRTFTVYDMGWFRQAPGKEREIVAAISADGATSIYQDSVKGRFTISRDNDAKNTVYLQMNSLKPEDTAVYYCAAGRSLIYNLYRANNTDYWGQGTQVTVSS
notes: periplasmic extract
B4: anti-IL-12Rβ2 VHH clone 3CAHS41 (clone ID 20394) (VHH, not shown: small tags and cut ends)
VHH: QVQLQESGGGLVQAGDSLRLSCAASGRTFDTYIVGWFRQAPGKEREFVSALSWSDDTTIRDDSLRGRFTISRDNAKNTVYLLMNSLKPEDTAVYYCAAKAKPPAATWSSYRNREWYDYWGQGTQVTVSS
notes: periplasmic extract
B5: anti-IL-12Rβ2 VHH clone 3CAHS180 (clone ID 20410) (VHH, not shown: small tags and cut ends)
VHH: B4 VHH with I70L
notes: periplasmic extract
B6: anti-IL-12Rβ2 VHH clone 3CAH32 (clone ID 20357) (VHH, not shown: small tags and cut ends)
VHH: QVQLQESGGGLVQPGGSLRLSCAASGSILRINLMGWYRQVPGKQRELVAEMSTGGSTTYVDSVKGRFTISRDNAKNTVYLQMNSLKPEDTAVYYCNAKAWQLGRLENDDWGQGTQVTVSS
notes: periplasmic extract
B7: anti-IL-12Rβ2 VHH clone 3CAHS102 (clone ID 20399) (VHH, not shown: small tags and cut ends)
VHH: B6 VHH with K64E
notes: periplasmic extract
B8: anti-IL-12Rβ2 VHH clone 3CAHS79 (clone ID 20398) (VHH, not shown: small tags and cut ends)
VHH: QVQLQESGGGLVQPGGSLRLTCVASGFPFSTHAMSWVRQPPGKGREWISAINSGGDSTDYADSVMGRFTISRDNAKNTVYLQMNSLKSEDTAVYYCAKYEDCSDYDCSSRASWGQGTQVTVSS
notes: periplasmic extract
B9: anti-IL-12Rβ2 VHH clone 3CAHS171 (clone ID 20407) (VHH, not shown: small tags and cut ends)
VHH: B8 VHH with V93A
notes: periplasmic extract
B10: anti-IL-12Rβ2 VHH clone 3CAH60 (clone ID 20361) (VHH, not shown: small tags and cut ends)
VHH: QVQLQESGGGLVQPGGSLILSCVASGFAMDYLTMGWSREAPRNEREDISCIDTSGRSTDYLDSVKGRFTISRDNAKNTLYLHMNDLKPEDTAEYYCLASTSYCGAGYEYRGQGTQVTVSS
notes: periplasmic extract
B11: anti-IL-12Rβ2 VHH clone 3CRHS31 (clone ID 20418) (VHH, not shown: small tags and cut ends)
VHH: QVQLQESGGGLVQAGGSLRLSCAASGFTFSTYAMSWVRQAPGKGLEWVSSVNSGGLSTDYADSVEGRFTISRDDAKNMLFLQMNSLKPEDTARYYCAKYEDCSDYVCDRAGYWGQGTQVTVSS
notes: periplasmic extract
B12: anti-IL-12Rβ2 VHH clone 3CRHS51 (clone ID 20421) (VHH, not shown: small tags and cut ends)
VHH: B11 VHH with A14P, S50A, S85R
notes: periplasmic extract
B13: 20373-FcDE (Fc fusion)
VHH-Fc chain: QVQLQESGGGLVQAGGSLVLSCAASGSAALIFLMSWYRQAPGKQRELVAEVSRGGSTTYADSVEGRFTISRDNAKNIVDLQMNSLKPEDTAVYYCKADQNYGDSLRSSWGQGTQVTVSSAPELLGGPDVFLFPPKPKDTLMISRTPEVTCVVVDVSHEDPEVKFNWYVDGVEVHNAKTKPREEQYNSTYRVVSVLTVLHQDWLNGKEYKCKVSNKALPAPEEKTISKAKGQPREPQVYTLPPSRDELTKNQVSLTCLVKGFYPSDIAVEWESNGQPENNYKTTPPVLDSDGSFFLYSKLTVDKSRWQQGNVFSCSVMHEALHNHYTQKSLSLSPGK
B14: 20372-FcDE (Fc fusion)
VHH-Fc chain: QVQLQESGGGLVQAGGSLRLSCAASARTESMYAMAWFRQAPGKEREIVAGIIQSGGTTYISDYMKGRFSIDRGNAENTVYLQMDSLKPEDTAVYSCAAKVSSGTPSDIQISQSRWYDHWGQGTQVTVSSAPELLGGPDVFLFPPKPKDTLMISRTPEVTCVVVDVSHEDPEVKFNWYVDGVEVHNAKTKPREEQYNSTYRVVSVLTVLHQDWLNGKEYKCKVSNKALPAPEEKTISKAKGQPREPQVYTLPPSRDELTKNQVSLTCLVKGFYPSDIAVEWESNGQPENNYKTTPPVLDSDGSFFLYSKLTVDKSRWQQGNVFSCSVMHEALHNHYTQKSLSLSPGK

target: T1, biotinylated recombinant human IL-12Rβ2; test: BLI, P.E., off-rate ranking

Point of comparison: B3, Response 0.643. Against it:
- B1 — lower, 0.576
- B2 — lower, 0.4
- B4 — lower, 0.609
- B5 — lower, 0.376
- B6 — lower, 0.607
- B7 — lower, 0.323
- B8 — lower, 0.268
- B9 — lower, 0.195
- B10 — lower, 0.59
- B11 — lower, 0.234
- B12 — lower, 0.327

Point of comparison: B12, koff 0.0043 s⁻¹. Against it:
- B1 — within 1.5-fold, 0.00483 s⁻¹
- B2 — within 1.5-fold, 0.00428 s⁻¹
- B3 — within 1.5-fold, 0.00622 s⁻¹
- B4 — within 1.5-fold, 0.00441 s⁻¹
- B5 — 1.6-fold lower, 0.00265 s⁻¹
- B6 — within 1.5-fold, 0.00419 s⁻¹
- B7 — 1.6-fold lower, 0.00267 s⁻¹
- B8 — within 1.5-fold, 0.00434 s⁻¹
- B9 — within 1.5-fold, 0.00431 s⁻¹
- B10 — within 1.5-fold, 0.00517 s⁻¹
- B11 — within 1.5-fold, 0.00429 s⁻¹

target: T2, human IL-12Rβ2 expressed on cells; test: cell-based or functional assay

Point of comparison: B14, “% Specific Cell Lysis at 0.00125 ug/mL” value 51.1%. Against it:
- B13 — lower, 48.9%

In the case of B13, the “% Specific Cell Lysis at 0.025 ug/mL” value is reported as 61.1%.

Point of comparison: B13, “% Specific Cell Lysis at 0.5 ug/mL” value 67.4%. Against it:
- B14 — lower, 66.9%

Point of comparison: B13, “% Specific Cell Lysis at 10 ug/mL” value 70.7%. Against it:
- B14 — lower, 69.9%

target: T1, biotinylated recombinant human IL-12Rβ2; test: ELISA, P.E., biotinylated antigen

Point of comparison: B6, “ELISA hIL-12RB2/control” value 4.31. Against it:
- B1 — higher, 7.57
- B2 — lower, 3.64
- B3 — lower, 3.51
- B4 — higher, 8.77
- B5 — higher, 4.78
- B7 — lower, 3.54
- B8 — lower, 3.71
- B9 — lower, 3.27
- B10 — lower, 3.91
- B11 — higher, 10.9
- B12 — higher, 12

target: T3, biotinylated recombinant mouse IL-12Rβ2; test: ELISA, P.E., biotinylated antigen

Point of comparison: B11, “ELISA mIL-12RB2/control” value 1.16. Against it:
- B1 — lower, 0.4
- B2 — lower, 0.975
- B3 — lower, 0.868
- B4 — higher, 1.35
- B5 — higher, 1.19
- B6 — lower, 0.842
- B7 — lower, 1.02
- B8 — lower, 1.04
- B9 — lower, 0.961
- B10 — higher, 1.9
- B12 — lower, 0.946
